# Measurements as given in the RNAGym collection of RNA variant scans (doi:10.1073/pnas.2313332121).
# Variants at the floor of the assay were thinned out.
# B1: TPR 5TU (parent)
# chain: GGAUCUUCUCGAUCUAACAAAAAAGACAAAUCUGCCACAAAGCUUGAGAGCAUCUUCGGAUGCAGAGGCGGCAGCCUUCGGUGGCGCGAUAGCGCCAACGUUCUCAACUAUGACACGCAAAACGCGUGCUCCGUUGAAUGGAGUUUAUCAUG
# Variants of: B1
# Experiment: polymerase ribozyme fitness, log enrichment relative to wild type (log ratio); higher = more active; in vitro selection for triplet polymerase activity
# How it was run: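 A single round of triplicate in vitro selection, including frozen incubation at −7 °C, was applied to PCR-built, transcribed mutant libraries of each subunit of a heterodimeric triplet polymerase ribozyme. Illumina sequencing of input and output libraries retained genotypes with ≥10 input reads and ≥1 read per output. Fitness is the base-2 logarithm of genotype enrichment divided by wild-type enrichment, from inverse-variance-weighted replicate averages.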
row,Variant,polymerase ribozyme fitness (log ratio)
1,GGAUCUUCUCGAUCUAACAAAAAAGACAAAUCUGCCACAAAGCUUGAGAGCAUCUUAGGAUGCAGAGGCGGCAGCCUUCGGUGGCGCGAUAGCGCCUACGUUCUCAACUAUGACACGCAAAACACGUGCUCCGUUGAAUUGAGUUUAUCAUG,-4.13
2,GGAUCUUCUCGAUCUAACAACAAAGACAAAUCUGCCACAACGCUUGAGAGUAUCUUCGGAUGCAGAGGCGGCAGCCUUCGGUGGAGCGAUAGCGCCAACGUUCUCAACUAUGACACGCAAAACGCGUGCUCCGUUGAAUGGAGUUUAUCAUG,-3.05
3,GGAUCUUCUCGAUCUAACAAAAAAGACAAAUCUGCCACAAAGCUUGAGAGCAUCUUCGGAUGCAGAGGCGGCAGCCUUCGGUGGCGCGAUAGAGCCAACGUUCUCAACUAUGACACGCAAAACGCGGGCUCCGUUGAAUGGAGUUUAUCAUG,-4.05
4,GGAUCUUCUCGAUCUAACAAAAAAGACAAAUCUGCCACAAAGCUUGAGAGCAUCUUCGGAUGCAGAGGCAGCAGCCUUCGGUGGCUCUAUAGCGCCAAGGUUCUGAACUAUGAGACGCAAAACGCGUGCUCCGUUGAAUGGAGUUUAUCAUG,≤ -4.2
5,GGAUCUUCUCGAUCUAACAAAAAAGACAAAUCUGCCACAAAGCUUGAGAGCAUCGUCGGAUGCAGAGGCGGCAGCCUUCGGUGGCGCGAUAGCACCAACGUUCUCAACUAUGACGCGCAAAUCGCGUGCUCCGCUGAACGGAAUUUACCAUG,≤ -4.2
6,GGAUCUUCUCGAUCUAACAAAAAAGACAAAUCUGCCACAAAGCGUGAGAGCAUCAUCGGAUGCAGAGGCGGCAGCCUUCGGUGGCGCGAUUGCGCCAACGUUCUCAACUAUGACACGCAAAACGCGUGCUCCGUUGAAUGCAGUUUAUCAUG,≤ -4.2
7,GGAUCAUCUCGAUCUAAUAAAAAAGACAAAUCUGCCACAAAGCUUGAGCGCAUCUUCGGAUGCAGAGGCGGCAGCCUUAGGUGGCGCGAUGGCGCCAACGCUAUCAACUAUGACACGCAAAACGCGUGCUCCGUUGAAUGGAGUUUAUCAUG,≤ -4.2
8,GGAUUUUCUCGAUCUAACAAAAAAGACAAAUCUGCCACAAAGCUUGAGAGCAUCUUCGGAUGCAGAGGCGGCAGCCUUCGGUGGUGCGAUAGCGCCAACGUUCUCAACUAUGACACGCAAAACGCGCGCUCCGUUGAAUGGAGUAUAUCAUG,-2.5
9,GGAUCUUCUCGAUCUAACAAAAAAGACAAAUCUGCCACAAAGCUUGAGAGCAUCUUCGGAUGCAGAGGCGGCAGCCUUCGGUGGCGCGGUAGCGACAACGUUCUCAACUAUGACACGCAAAACGCGUGCUCCGUUGAAUGGAGUUUAUCAUG,-2.08
10,GGAUCUUCUCGAUCUAACAAAAAAGACAAAUCUGCCACAAAGCUAGACACCAACUACGGAGGCAGAGGCGGCAGCCUUCGGUGGCGCGAUAGCGCCAACGUUCUGAACUAUGACACGCGAAACGCGUGCUCCGUUUAAUGGAGUUUAUCAUG,≤ -4.2
11,GGAUCUUCUCGAUCUGACAAAAAAGACAAAUCUGCCACAAAGCAUGAGAGCAUCUUCGGAUGCAGAGGCGGCGGCCUUCGGUGGCGUGAUAGUGCCAACGUUCUCAACUAUGACACGCAAAACGCGUGCUCCGUUGAAUGGAGUUUAUCAUG,≤ -4.2
12,GGAUCUUCUCGAUCUAACAAAAAAGAGAAAUCUGCCACAAAGCUUGAGAGCAUCUUCGGAUGCAGAGGCGGCAGCCUUCGGUGGUGCGAUUGCGCCAACGUUCUCAACAAUGACACGAAAAACGCGCGCUCCGUUGAAUGGAGUUUAUCAUG,≤ -4.2
13,GGAUCUUCUCGAUCUAACAAAAAAGCCAAAUCUGCCAAAAAGCUUGAUAGCAUCUUCGGAUGGAGAGGCGGCAGUCUUCGGUGGCGAGAUAGCGCCAACGUUCUAAACUAUGACACGCAAAACGCGUGCUCCGUUGAAUGGAGUUUAUCAUG,≤ -4.2
14,GGUUCUUCACGAUCUAACAAAACAGAGAAAUCUGCCACAAAGCUUGAGAGCAUCUUCGGAUGCAGAGGCGGCAGCCUUCGAUGGGGCGAUAGCGCCAACGUUCUCAACUAUGACACGCAAAACGCGUGCUCAGUUGAAUGGAGUUUAUCAUG,≤ -4.2
15,GGAUCUUCUCGAUCUAACAAAAAAGACAAAUCUGCCACAAAGCUUGAGAGCAUCUUCGGAUGCAGAGGCGGCAGCCUUCGGUGGCGCGAUAGAGCCAACGUUAUCAACUAUGACACGCAAAACGCGUGCUCCGUAGAGUGGAGUUUAUCAUG,≤ -4.2
16,GGUUCUUCUCGAUCUAACAAAAAAGACAAAUCUGCCACAAAGCUUGAGAGCAUCUUCGGAUUCAGAGGCGGCAGCCUUCGGUGGCGCGAUAGCGCCAACGUUCUCAACUAUGACACGCAAAACGCGUGCUCCGUUGAAUGGAGUUUAUCAUG,-0.505
17,GGAUCUUCUCAAUCUAACAAAAAAGACAAAUCUGCCACAAAGCUUGAGAGCAUCUUCGGAUGCAGAGGCGGCAGCCUUCGGUGGAGCGAUAGCGCCAACGUUCUCAACUAUGACACGCAAUACGCGUGCUCCGUUGAAUGGAGUUUAUUAUG,-2.75
18,GGAUCUUCUCGAACUAACAAAAAAGACAAAUCUGCCACAAAGCUUGAGAGCAUCUUCGGAUGCAGAGGCGGCAGCCUUCGGUGGCGCGAUAGCGCCAACGUUAUCAACUAUGACACGCAAAACGCGUGCUCCGUUGAAUGGAGUUUAUCAUG,-2.51
19,GGAUCUUCUCGAUCUAACAAAAAAGACAAAUCUGCCAAAAAGCUUGAGAGCAUCUUCGGAUGCAGAGGCGGCAGCCUUCGGUGGCGCGAUACAGCCAACGUUCUCAACUAUGACACGCAAAACGGGUGCUCCGUUGAAUGGAGUUUAUCAUG,≤ -4.2
